Assay results as given in the DeepSol protein solubility set.

Test: soluble on expression in E. coli; label from the status in PepcDB or PDB records

Row | Sequence | soluble on expression in E. coli
1 | MKQITIASRESKLALWQTNFVKNRIQLELNIPCEISTMKTQGDIILDQPLNKIGGKALFMKELEVAMLSNKADIAVHSLKDVPYQLPQGFCLAGFMPREDPRDAFVSNKYNSIDDLPKGAVVGTSSLRRKAQLLHYRDDLEIRDLRGNIQTRLSKLDNGDYDAIILASAGLIRLELVERITQFIPVEISLPAVGQGIVVIEALERDNDLLEKIQKLNCRESSRVATAERAFNQELKGGCHVAIGAYAELDNNQITLMAMVASSDGKKILKRKMIGDDPTKLGKLLAQEMIALGAYKILES | not soluble
2 | MGSDKIHHHHHHMIAVLDMGTNSFILLVVSEKGETILEEVHEVGIASGNLEKAKEVFKECVEKAEKMGAELHIFGTAFFRKHPDIFQQITGGRGEILPEEKEAYYSYISVAKDFGKKDILVADLGGGSLELAWKDGYVSLELGTHVLNRTFSLTLPYIEPVDGIVEYVMKRLPEVKKDELFGVGGSFVALAALMKGKWDLEILHGSVLKLEEVEKLVDKIKRMSFEDVKNLKVLPEGREKTILAGGIVTIALLRKYSPRMTVSTRGYRYGIVWEILEKRWRARGDSNPQPPDPQSGALSN | not soluble
3 | MGSDKIHHHHHHMSTSYEISSLPWLSASHELLLKQVRLGSLSHGHLLDVHTQLGGDVLAQSMAKLILCQALTPVGACGQCKACLLVSAGTHPDLHSVAPDGNQIKVDQIRSLCSSLTSTAQQGGKRVAIIYQSERMNTASANALLKTLEEPGKETFLLLQTDRTAALLATVKSRCQTLSITPPSNAEVNAWLKGQQLLPVVPDGAKPHDVTWCLSVVGGPIQLAQSLQSDKYQTLLNYRKEWAMSLSSGHLCGSLLALKDNQLIDALQVLYLYLRHFVLKSNDINAFTKAQVITLAAKIMEMRHKLTTMAAVNTQALCMDYVLAFRQLTHTHR | not soluble
4 | MGSDKIHHHHHHMEYGHHARPDSKRPLDEGSPAAAGLTSKKANEALTRNRELTTVLVKNLPKSYNQNKVYKYFKHCGPIIHVDVADSLKKNFRFARIEFARYDGALAAITKTHKVVGQNEIIVSHLTECTLWMTNFPPSYTQRNIRDLLQDINVVALSIRLPSLRFNTSRRFAYIDVTSKEDARYCVEKLNGLKIEGYTLVTKVSNPLEKSKRTDSATLEGREIMIRNLSTELLDENLLRESFEGFGSIEKINIPAGQKEHSFNNCCAFMVFENKDSAERALQMNRSLLGNREISVSLADKKPFLERNEVKRLLASRNSKELETLICLFPLSDKVSPSLICQFLQEEIHINEKDIRKILLVSDFNGAIIIFRDSKFAAKMLMILNGSQFQGKVIRSGTINDMKRYYNNQQNHSMKHVKPSCINMMEKGPNLQVKKKIPDKQEQMSNDDFRKMFLGE | not soluble
5 | MRRLKRDPLERAFLRGYQNGITGKSRDLCPFTHPTTRQSWLNGWREGRGDNWDGLTGTAGLQRLNQLQHVLEHHHHHH | not soluble
6 | MAISDGRTGNTRQAEALASTLVGSLYTTQVLKPRIPWRWTAPYCLPGAKHAFGTTFSHALRYPPFLAIGCGRQAALATRLLHKQGACVVQILDPRLPARHWDLLVVPEHDHIRGHNVLTLLGSLHPVNDVWLATGRAQFPELGDLPGQRVALLVGAPTPQAPWQPAQLEELCTALVKGLSCGGSVLATTSRRTPPELATQLRKHLATIPGLFWNNTDKGANPYPGILGWADAIIATADSVNLLSEACATRAPVTAAFANQTRGRIRCFIDALGARLCTVENLLAIDTLAQPLRETERIANEVRAWFGMV | not soluble
7 | MEDDPVWRFDDRDVILYNIALGATTKQLKYVYENDSDFQVIPTFGHLITFNSGKSQNSFAKLLRNFNPMLLLHGEHYLKVHSWPPPTEGEIKTTFEPIATTPKGTNVVIVHGSKSVDNKSGELIYSNEATYFIRNCQADNKVYADRPAFATNQFLAPKRAPDYQVDVPVSEDLAALYRLSGDRNPLHIDPNFAKGAKFPKPILHGMCTYGLSAKALIDKFGMFNEIKARFTGIVFPGETLRVLAWKESDDTIVFQTHVVDRGTIAINNAAIKLVGDKAKI | soluble
8 | RVQLLESGAELMKPGASVQISCKATGYTFSEYWIEWVKERPGHGLEWIGEILPGSGRTNYREKFKGKATFTADTSSNTAYMQLSSLTSEDSAVYYCTRGYSSMDYWGQGTSVTVSAAKTTPPSVYPLAPGCGDTTGSSVTLGCLVKGYFPESVTVTWNSGSLSSSVHTFPALLQSGLYTMSSSVTVPSSTWPSQTVTCSVAHPASSTTVDKKLEPSGPI | soluble
9 | MASKIEPGSPQPIYLDVQATAPMDPRVVDAMLPYMINDFGNPHSRTHSYGWKAEEGVEQAREHVANLIKADPRDIIFTSGATESNNLAIKGVAKFRKQSGKNHIITLQTEHKCVLDSCRYLENEGFKVTYLPVDKGGMVDMEQLTQSITAETCLVSIMFVNNEIGVMQPIKQIGELCRSKGVYFHTDAAQATGKVPIDVNEMKIDLMSISAHKIYGPKGAGALYVRRRPRVRIEAQMSGGGQERGLRSGTVAAPLCIGLGEAAKIADKEMAMDKAHVERLSQMLINGISDKLPHIIRNGDARHAYPGCVNLSFAYVEGESLLMALKSIALSSGSACTSASLEPSYVLRAIGSEEDLAHSSIRFGLGRFTTDEEVKHTIDLCIRETNRLRDLSPLWEMVQEGIDLKSIQWTQH | not soluble
10 | MQNAILLVSCPDRKGLVKEISSFIADNGGNIVSFDQHIDEQTKTFLARVEWSLEDFKIPREKIENEFKKVAQKFSMNFQISFSDYVKKVAIFVSKQEHCFYDLMHRFYSGELKGEVKLVISNHEKARKTAEFFGVPFYHIPKTKENKLEAEKRELELLKEYGVELVVLARYMQILSPKFVKEYENKIINIHHSFLPAFPGAKPYERAFGKGVKIIGATAHYVTEELDEGPIIEQDVVRVSHKDSLEDFIRKGKDIEKVVLARAVKWHLEDKILVYNGKTVVFE | soluble
11 | MGSDKIHHHHHHMSEQMFEGWNGAIVVTPETVKIIYGNQHSKGEGEKEITLESIQSIELKKPRFLAQGYIQLILEGSKKKKGALAAMGDEHSIMINDEAQYKQFEQAKELIELFQHEQKLVSEQNEKGEGWREDVFKGGNGTLVVTPETIKIIYSWLHTRGRGEKTINIRSISSIQLKEPAVVAGYIQFTFQGSIENQSRSSFSAIDDQNTIAISNKHQFEDFKRAKALIESYQNQLYAPQIQSSSTSGADELKKYKELLDDGIISEEEFNAKKKQILGI | not soluble
12 | MSKKFVNKAEEAVDDALFGLVSSNSNVKFHKSCRRVVHITDLNPSHHVSLIAGGGSGHEPYAAGYVGKGLLTAAIAGNVFASPPSRNVQAALEATRGEAGAILFVINYTGDRLNFGLAAERFNASGGTARVVTIADDVAIDSPNSKVGRRGLAGAVLTIKIAGAMAWEGKSLDEIYETSQKVVSSMGTLGVSLYTGSLPGKNRETELPDDQIEVGLGIHGEPGKFRAQFGSANRIVHSLLDTLRSKMEMREGEKFVVLVNNLGSVSQLEMNIVNGEVLRYFEDHKIGITRFFSGIYMTSLDGHGVSVTILRADDSMLQYLDAPAAAPGWIPALSVQKCVDHQEISDSSSQGDLISEIPASGVTVNAQLVEACVGGVVDAMLESEKHLNQLDAYAGDGDCGSTFAGAAEAIRKQTSGLNYTHPETLLKQLSIIFEQTVGGTSGALYALMFSSAAQSFAQRSQRGEKIDRTSILEALDKANRAVQKYGGARVGDRTMVDGLDAMVEELRKGFSGNEESLDAIFEAAVKASEKAAKATASQTATVGRASYTSSEAQTKPDAGATAISLWLRACWTAYKSEK | not soluble
13 | GMNVNFINPFLQSLLNVISTMASLELTPGKPQIKTDNLAKGDVSGLIGMVGPQTKGSLSITFEQKLVLQIMQNMLGENPGKINEEVTDLVGEITNMVTGGAKNLLGQKGYEFEMATPMVVSGQGHTISHKANGTKIIMPFTSSYGTAFIEVCFES | soluble
14 | MGSDKIHHHHHHMLRGMYTASGAMQALQRQQEMLSNNLANARTPGFRADQASLRTFPEMMIQQSGVNEQSGVRSRGTVGKLATGVFMQAATPNFALGSITETGNATDLQISSLEGAALFTIRHADPATGEEETLYTTNGQFAVGQDGLLRTTENDLVLGDAGQPLNVVNEDFTVSADGAVTDGNGQAIGNLGLVVTNQPETLERTGNGLFRSPDALNGGAIKVDQGVLELGNVEVEQTMTEMNAGLRQFEANQKVIQAYDRTAEKAVSEIGRVR | not soluble
15 | MDFHIDEKYKGMGKGRTFLIKTYGCQMNAHDTEVMAGILNALGYSATSDINEADVILINTCAIRENAENKVFSEIGNLKHLKKERPDCLIGVCGCMSQEESVVNKILKSYQNVDMVFGLEHHHHHH | not soluble
16 | MGSDKIHHHHHHMIKIKKSEDCCGCSACLSICNHNAIVFKEDVEGFKYPMIEEGKCINCGLCEMACPILYRKVKDIRPTPKAYFAARHKNIVTLRNSSSGGAFTAIAGSVIELGGVVCGVEYDNDGVVRHSFSETMEGIRSFMGSKYVQSEIQGVYNQIKTYLKSDRWVLFTGSPCQVEGLKLFLRKPYENLLTVDLVCHAVPSPLIYKQYINMCSTKLGQKVMSINMRYKQTYGWSHRFSYCFYFENGQKAVDPVWVVNWGKIFFSQMINRPSCHSCKYSNLDRPGDFTIADFWDDKKNRPDLYSCEGTSLLMVNTNMGLDLINKLYDSIDLWKITKDEAMQPCLIRPTCSNQRRQEFWEFYLLRGFDAAYKKYFGDSKYVITKKIVKQIIKRVLRKLQ | not soluble
17 | MLSAAAFAADKVVKLPKPNLNRTGTVMKALSERQSTREYASKALTLADLSDLLWAANGINRSDAGKRTAPSAMNKQDVDVYVILSEGSYLYDAKNHQLNLIAEGDYRGAVAGGQAFVKTAPVSLVLISDVSRFGDAQKIQNQLMGAMDAGIVSQNISIFCSAAKLATVPRASMDAAQLKKVLKLKDSQIPMMNHPVGYFK | not soluble
18 | MAGILHNEGVKVAITTDHPVTRIQDLLICAGLAAKEGLGIEEGLKAITINPAEICNVANRVGSIEVNKDADIAIFDGNPMETFTKTMYTIINGEIVYSLKDLEHHHHHH | not soluble
19 | AEIFATHLEAIARHTGPVRTLIDLGAGDCAKAERLLPCLRPQRYVPIDISTDFLGQAVARVRRAHPWLDVLPLGRDLNAGLDLPEAIDAQGRLFFYPGSSIGNLDPDAALALLASLRAQAGVSGGLLIGVDRVKARAIVEPAYDDALHLTGAFNLNLLRHVNSVLGSDFDVRDWTHVALYNEPRSRMEMHLQARSDIRVRWPGGQRRFQADERIHTENSYKYTIERFVDLLRRAGYGDIRYWSDARDWFSVFSARA | not soluble
20 | MSLFGTSTTAPAASTTPLFGSTAAAAPKPGGLFGAPAAAMSSGLFGASQTAPAPASAGLFGSTTAPTPASTSSVPLFGSTTTTASPSGGLFGAKTATTAAPAPTGGLFGASTAAPATGSLFGSTAPATGGLFGAKSTTSAAPTLGGGLFGSSTAPAAAATTSFGAPPATAAAPLGLGGIQQQNSSGGGLPNASGTATSSLTGTGDSKDASKDGEWTQAATLIRDLLPLIEDKFKKNREFMEETENMSIDNVAIEEQIDKTRGWIEEVRRDVLTATQSSERIAYLVSTDKTLCDTTKRVQEHSGSANQTTYMNAIKEHLAELCNFYGNDMDALQERVNFLRNRFEKLLTGEKSITMEELDAYFLRCDANVSNAHHHVTELGKEIEEIRDFLIEQGYTQLRKWSTTAASAAAPIASNSEMIVREGAEFFPSQSSLAIIGSSLRAPAAPAPAVGGLGLGTGTSLFGNTGTTSLFGSTATKPAFSGGSLFGATTSTATSSAAATTTTPTTSLFGSTKPATTTTPFASTVANNSSGLLFSSKK | not soluble
21 | MARVRFENKRVNMSKLSQFGFEPNQNGQYQFRILIMQGQFEMIIELNTDGSLNTTLTDTTTSEVYVLHLTSQAHGQFVGQVAQAYQDVLYNIEQHCYDNDVFQSTPERKLIAQVKAAYGDDLEFLWPKFPQNAVWRRSDTHKWYGALLTVTSDKLALPGATHVVTVLDLRARPEDLSMLIDGQHYLPGYHMNKKHWYSILLDDVVPLATIMDDVKVSYMLAKLEHHHHHH | not soluble
